From US20200199234A1 (published 2020)
Values belong to the binder of their own block, whether it stands above or below them.

What was measured:
[1] = molecular target: T1, human CEA (CEACAM5) expressed on cells (MKN45; MV3 engineered to express human CEACAM5) (human, UniProt P06731 35-685); assay: flow cytometry on MV3 cells expressing CEA
T1 sequence: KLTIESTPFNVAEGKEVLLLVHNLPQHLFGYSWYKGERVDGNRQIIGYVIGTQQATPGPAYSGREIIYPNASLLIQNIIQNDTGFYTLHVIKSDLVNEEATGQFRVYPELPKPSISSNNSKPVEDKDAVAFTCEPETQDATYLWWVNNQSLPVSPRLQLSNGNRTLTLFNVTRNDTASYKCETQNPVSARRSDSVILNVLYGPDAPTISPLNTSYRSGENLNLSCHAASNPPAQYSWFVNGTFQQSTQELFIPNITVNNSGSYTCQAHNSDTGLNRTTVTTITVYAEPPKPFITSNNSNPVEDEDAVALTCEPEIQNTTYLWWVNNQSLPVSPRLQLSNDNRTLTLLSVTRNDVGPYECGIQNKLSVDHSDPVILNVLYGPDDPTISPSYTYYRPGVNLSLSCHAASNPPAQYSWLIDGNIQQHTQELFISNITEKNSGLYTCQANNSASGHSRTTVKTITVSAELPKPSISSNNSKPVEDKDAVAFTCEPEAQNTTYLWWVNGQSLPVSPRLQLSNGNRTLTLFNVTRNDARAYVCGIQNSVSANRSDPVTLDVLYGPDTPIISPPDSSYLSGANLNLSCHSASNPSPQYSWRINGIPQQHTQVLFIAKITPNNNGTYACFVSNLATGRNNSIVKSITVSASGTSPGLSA

[2] = molecular target: T2, huCD28-Fc, dimeric human CD28 extracellular domain fused to human IgG1 Fc (knob/hole, PG-LALA), monovalent … (human, UniProt P10747 19-152, biotin on C-terminal avi tag); assay: from SPR KD values
T2 construct: also called biotinylated huCD28-Fc antigen; not shown: human IgG1 Fc fragment with hole and PG-LALA mutations; human IgG1 Fc fragment with knob and PG-LALA mutations

[3] = molecular target: human CD28 expressed on cells (CHO-k1 stably overexpressing human CD28; T cells in functional assays) (human, UniProt P10747 19-220); assay: cell-based or functional assay
[4] = molecular target: T3, human HER3 on T-47D cells (human, UniProt P21860 20-1342); assay: flow cytometry
T3 construct: also called ErbB3

[5] = molecular target: T4, Hu N(A2-B2)A-avi-His, chimeric CEACAM1 protein with CEACAM5 domains A2 and B2 (human, biotinylated avi-tag (Example 2.2)); assay: SPR ProteOn, biotinylated antigen on NLC chip
T4 construct: also called hu N(A2-B2)A-avi-His B; human CEA (A2 domain)
T4 chain: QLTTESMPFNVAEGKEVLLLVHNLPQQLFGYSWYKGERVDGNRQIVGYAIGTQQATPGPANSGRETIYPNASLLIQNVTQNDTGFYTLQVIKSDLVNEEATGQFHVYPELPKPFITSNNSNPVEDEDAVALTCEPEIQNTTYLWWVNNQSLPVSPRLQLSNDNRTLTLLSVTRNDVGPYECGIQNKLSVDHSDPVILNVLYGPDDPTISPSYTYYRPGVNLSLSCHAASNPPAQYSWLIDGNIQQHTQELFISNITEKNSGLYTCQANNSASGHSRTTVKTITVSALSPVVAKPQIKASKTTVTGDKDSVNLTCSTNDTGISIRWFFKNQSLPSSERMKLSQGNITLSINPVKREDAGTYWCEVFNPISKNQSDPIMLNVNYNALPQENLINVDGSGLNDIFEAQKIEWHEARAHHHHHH

EC50 [1]: 4.1 nM
B1: Molecule 11R: CEA (P002.139)-CD28 (SA_Variant 15) 1+1 format (bispecific antibody)
heavy 1: EIVLTQSPATLSLSPGERATLSCHASSSVTYIHWYQQKPGQAPRSWIYATSNLASGIPARFSGSGSGTDFTLTISSLEPEDFAVYYCQHWSSKPPTFGQGTKLEIKSSASTKGPSVFPLAPSSKSTSGGTAALGCLVKDYFPEPVTVSWNSGALTSGVHTFPAVLQSSGLYSLSSVVTVPSSSLGTQTYICNVNHKPSNTKVDKKVEPKSCDKTHTCPPCPAPEAAGGPSVFLFPPKPKDTLMISRTPEVTCVVVDVSHEDPEVKFNWYVDGVEVHNAKTKPREEQYNSTYRVVSVLTVLHQDWLNGKEYKCKVSNKALGAPIEKTISKAKGQPREPQVCTLPPSRDELTKNQVSLSCAVKGFYPSDIAVEWESNGQPENNYKTTPPVLDSDGSFFLVSKLTVDKSRWQQGNVFSCSVMHEALHNHYTQKSLSLSP
light 1: EVQLLESGGGLVQPGGSLRLSCAASGFYFTDYAMNWVRQAPGKGLEWLGVISNKANAYTTEYSASVKGRFTISRDKSKNTLYLQMNSLRAEDTATYYCTRDRGLRFYFDYWGQGTTVTVSSASVAAPSVFIFPPSDEQLKSGTASVVCLLNNFYPREAKVQWKVDNALQSGNSQESVTEQDSKDSTYSLSSTLTLSKADYEKHKVYACEVTHQGLSSPVTKSFNRGEC
heavy 2: not shown
light 2: not shown
notes: also called P1AE8371

fold reduction of affinity compared to the parental CD28 clone [2]: ~20 fold
B2: FAP (4B9) - CD28 (CD28(SA)_Variant 8) 1+1 (bispecific antibody, human IgG1, kappa, L234A L235A)
heavy 1: EIVLTQSPGTLSLSPGERATLSCRASQSVTSSYLAWYQQKPGQAPRLLINVGSRRATGIPDRFSGSGSGTDFTLTISRLEPEDFAVYYCQQGIMLPPTFGQGTKVEIKSSASTKGPSVFPLAPSSKSTSGGTAALGCLVKDYFPEPVTVSWNSGALTSGVHTFPAVLQSSGLYSLSSVVTVPSSSLGTQTYICNVNHKPSNTKVDKKVEPKSCDKTHTCPPCPAPEAAGGPSVFLFPPKPKDTLMISRTPEVTCVVVDVSHEDPEVKFNWYVDGVEVHNAKTKPREEQYNSTYRVVSVLTVLHQDWLNGKEYKCKVSNKALGAPIEKTISKAKGQPREPQVCTLPPSRDELTKNQVSLSCAVKGFYPSDIAVEWESNGQPENNYKTTPPVLDSDGSFFLVSKLTVDKSRWQQGNVFSCSVMHEALHNHYTQKSLSLSP
light 1: EVQLLESGGGLVQPGGSLRLSCAASGFTFSSYAMSWVRQAPGKGLEWVSAIIGSGASTYYADSVKGRFTISRDNSKNTLYLQMNSLRAEDTAVYYCAKGWFGGFNYWGQGTLVTVSSASVAAPSVFIFPPSDEQLKSGTASVVCLLNNFYPREAKVQWKVDNALQSGNSQESVTEQDSKDSTYSLSSTLTLSKADYEKHKVYACEVTHQGLSSPVTKSFNRGEC
heavy 2: not shown
light 2: not shown
notes: also called P1AE3131
EC50 killing (nM), TCB-mediated killing of MV3 target cells [3]: 2.33 nM

binding result [4]: binds
B3: Molecule 14B: HER3(lumretuzumab)-CD28 (SA_Variant 15) 1+1 format (bispecific antibody, human IgG1, kappa, L234A L235A)
heavy 1: not shown
light 1: not shown
heavy 2: DIVMTQSPDSLAVSLGERATINCKSSQSVLNSGNQKNYLTWYQQKPGQPPKLLIYWASTRESGVPDRFSGSGSGTDFTLTISSLQAEDVAVYYCQSDYSYPYTFGQGTKLEIKSSASTKGPSVFPLAPSSKSTSGGTAALGCLVKDYFPEPVTVSWNSGALTSGVHTFPAVLQSSGLYSLSSVVTVPSSSLGTQTYICNVNHKPSNTKVDKKVEPKSCDKTHTCPPCPAPEAAGGPSVFLFPPKPKDTLMISRTPEVTCVVVDVSHEDPEVKFNWYVDGVEVHNAKTKPREEQYNSTYRVVSVLTVLHQDWLNGKEYKCKVSNKALGAPIEKTISKAKGQPREPQVCTLPPSRDELTKNQVSLSCAVKGFYPSDIAVEWESNGQPENNYKTTPPVLDSDGSFFLVSKLTVDKSRWQQGNVFSCSVMHEALHNHYTQKSLSLSP
light 2: QVQLVQSGAEVKKPGASVKVSCKASGYTFRSSYISWVRQAPGQGLEWMGWIYAGTGSPSYNQKLQGRVTMTTDTSTSTAYMELRSLRSDDTAVYYCARHRDYYSNSLTYWGQGTLVTVSSASVAAPSVFIFPPSDEQLKSGTASVVCLLNNFYPREAKVQWKVDNALQSGNSQESVTEQDSKDSTYSLSSTLTLSKADYEKHKVYACEVTHQGLSSPVTKSFNRGEC
notes: also called P1AF0151; HER3-CD28

Kd [5]: 0.29 nM
B4: Molecule M: CEA-CD28(SA) 1+1 format (bispecific antibody, human IgG1, kappa, L234A L235A)
light 1: not shown
heavy 1: not shown
heavy 2: QAVLTQPASLSASPGASASLTCTLRRGINVGAYSIYWYQQKPGSPPQYLLRYKSDSDKQQGSGVSSRFSASKDASANAGILLISGLQSEDEADYYCMIWHSGASAVFGGGTKLTVLSSASTKGPSVFPLAPSSKSTSGGTAALGCLVKDYFPEPVTVSWNSGALTSGVHTFPAVLQSSGLYSLSSVVTVPSSSLGTQTYICNVNHKPSNTKVDKKVEPKSCDKTHTCPPCPAPEAAGGPSVFLFPPKPKDTLMISRTPEVTCVVVDVSHEDPEVKFNWYVDGVEVHNAKTKPREEQYNSTYRVVSVLTVLHQDWLNGKEYKCKVSNKALGAPIEKTISKAKGQPREPQVCTLPPSRDELTKNQVSLSCAVKGFYPSDIAVEWESNGQPENNYKTTPPVLDSDGSFFLVSKLTVDKSRWQQGNVFSCSVMHEALHNHYTQKSLSLSP
light 2: EVQLVESGGGLVQPGRSLRLSCAASGFTVSSYWMHWVRQAPGKGLEWVGFIRNKANGGTTEYAASVKGRFTISRDDSKNTLYLQMNSLRAEDTAVYYCARDRGLRFYFDYWGQGTTVTVSSASVAAPSVFIFPPSDEQLKSGTASVVCLLNNFYPREAKVQWKVDNALQSGNSQESVTEQDSKDSTYSLSSTLTLSKADYEKHKVYACEVTHQGLSSPVTKSFNRGEC
notes: anti-CEA arm is Medi-565; also called P1AE3127
